The text below walks through data of article PMC2064205 (The Journal of Cell Biology, 2007).

The target in assay [1] is T1, HA3-San (human, UniProt Q9GZZ1 1-169).
T1 sequence: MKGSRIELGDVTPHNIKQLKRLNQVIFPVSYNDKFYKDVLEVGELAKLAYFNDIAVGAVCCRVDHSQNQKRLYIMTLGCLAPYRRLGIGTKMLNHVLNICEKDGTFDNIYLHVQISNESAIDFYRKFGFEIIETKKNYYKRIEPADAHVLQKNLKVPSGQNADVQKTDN
As to the kind of experiment: co-IP.

Assay [2] concerns the target T2, HA3-Ard1 (human, UniProt P41227 1-235).
T2 sequence: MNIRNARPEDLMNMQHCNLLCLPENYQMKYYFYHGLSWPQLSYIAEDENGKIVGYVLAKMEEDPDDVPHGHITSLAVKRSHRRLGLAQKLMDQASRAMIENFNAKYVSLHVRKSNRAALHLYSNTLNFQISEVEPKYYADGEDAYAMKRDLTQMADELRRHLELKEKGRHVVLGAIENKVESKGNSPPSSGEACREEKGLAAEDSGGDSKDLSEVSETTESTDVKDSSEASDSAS
As to the kind of experiment: co-IP.

B1: NatH (endogenous) (natural protein)
chain: MPAVSLPPKENALFKRILRCYEHKQYRNGLKFCKQILSNPKFAEHGETLAMKGLTLNCLGKKEEAYELVRRGLRNDLKSHVCWHVYGLLQRSDKKYDEAIKCYRNALKWDKDNLQILRDLSLLQIQMRDLEGYRETRYQLLQLRPAQRASWIGYAIAYHLLEDYEMAAKILEEFRKTQQTSPDKVDYEYSELLLYQNQVLREAGLYREALEHLCTYEKQICDKLAVEETKGELLLQLCRLEDAADVYRGLQERNPENWAYYKGLEKALKPANMLERLKIYEEAWTKYPRGLVPRRLPLNFLSGEKFKECLDKFLRMNFSKGCPPVFNTLRSLYKDKEKVAIIEELVVGYETSLKSCRLFNPNDDGKEEPPTTLLWVQYYLAQHYDKIGQPSIALEYINTAIESTPTLIELFLVKAKIYKHAGNIKEAARWMDEAQALDTADRFINSKCAKYMLKANLIKEAEEMCSKFTREGTSAVENLNEMQCMWFQTECAQAYKAMNKFGEALKKCHEIERHFIEITDDQFDFHTYCMRKITLRSYVDLLKLEDVLRQHPFYFKAARIAIEIYLKLHDNPLTDENKEHEADTANMSDKELKKLRNKQRRAQKKAQIEEEKKNAEKEKQQRNQKKKKDDDDEEIGGPKEELIPEKLAKVETPLEEAIKFLTPLKNLVKNKIETHLFAFEIYFRKEKFLLMLQSVKRAFAIDSSHPWLHECMIRLFNTAVCESKDLSDTVRTVLKQEMNRLFGATNPKNFNETFLKRNSDSLPHRLSAAKMVYYLDPSSQKRAIELATTLDESLTNRNLQTCMEVLEALYDGSLGDCKEAAEIYRANCHKLFPYALAFMPPGYEEDMKITVNGDSSAEAEELANEI
For the molecule B1, the “percent of input pulled down” value in assay [1] was > 10 % of input.

B2: Ard1 (endogenous) (natural protein)
chain: MNIRNARPEDLMNMQHCNLLCLPENYQMKYYFYHGLSWPQLSYIAEDENGKIVGYVLAKMEEDPDDVPHGHITSLAVKRSHRRLGLAQKLMDQASRAMIENFNAKYVSLHVRKSNRAALHLYSNTLNFQISEVEPKYYADGEDAYAMKRDLTQMADELRRHLELKEKGRHVVLGAIENKVESKGNSPPSSGEACREEKGLAAEDSGGDSKDLSEVSETTESTDVKDSSEASDSAS
B2: in assay [1], the “percent of input pulled down” value is > 10 % of input.

B3: San (endogenous) (natural protein)
chain: MKGSRIELGDVTPHNIKQLKRLNQVIFPVSYNDKFYKDVLEVGELAKLAYFNDIAVGAVCCRVDHSQNQKRLYIMTLGCLAPYRRLGIGTKMLNHVLNICEKDGTFDNIYLHVQISNESAIDFYRKFGFEIIETKKNYYKRIEPADAHVLQKNLKVPSGQNADVQKTDN
For the molecule B3, the “percent of input pulled down” value in assay [2] was < 10 % of input.
